The test system of experiment [1] is LNCaP human prostate cancer cells. As to the kind of experiment: Smad phosphorylation in LNCaP prostate cancer cells (Western blot). The class given is cell-based. As to conditions: single agent, cultured LNCaP cells. How it is done: The detection of Smad phosphorylation by Western analysis, for example in LNCaP (prostate cancer cells) or EC (vascular endothelial cells) in culture medium can be examined after exposure to varying concentrations of TDFRP or control compounds. BMP-7 serves as a positive control. Cells are lysed in RIPA lysis buffer (50 mM Tris-HCl at pH 8.0, 150 mM NaCl, 1% NP-40, 0.5% sodium deoxycholate, 0.1% SDS) containing 1 mM PMSF, 1 mM sodium orthovanadate, and 10 ug/mL proteinase inhibitor cocktail. Lysates are incubated on ice for 15 minutes, centrifuged, and transferred supernatant to a clean tube. 50 to 100 ug is used for analysis by SDS-PAGE. Resolved proteins are electro transferred onto PVDF membrane. The blot is blocked by incubating in 3% non-fat dry milk prepared in PBS at room temperature for 1 hour with constant slow agitation. The blot is incubated with 1-2 ug/mL of primary antibody (rabbit anti-phospho-Smad 1) prepared in PBS-milk, overnight with agitation at 4 degree C., washed twice with PBS, and incubated with secondary antibody (anti rabbit HRP conjugated IgG, 1:3000 dilution) at room temperature for 2 hours with agitation. After washing in PBS-0.05% Tween 20 for 5 minutes and rinsing, Smad phosphorylation is detected via an HRP reaction according to manufacturer's instructions (FIGS. 2, 3, 18, 2X).
For detection of Smad phosphorylation by Western analysis, LNCaP (prostate cancer cells) or EC (vascular endothelial cells) in culture medium are exposed to varying concentrations of TDFRP or control compounds. BMP-7 served as a positive control. Cells are lysed in RIPA lysis buffer (50 mM Tris-HCl at pH 8.0, 150 mM NaCl, 1% NP-40, 0.5% sodium deoxycholate, 0.1% SDS) containing 1 mM PMSF, 1 mM sodium orthovanadate, and 10 ug/mL proteinase inhibitor cocktail. Lysates are incubated on ice for 15 minutes, centrifuged, and transferred supernatant to a clean tube. 50 to 100 ug is used for analysis by
SDS-PAGE. Resolved proteins are electro transferred onto PVDF membrane. The blot is blocked by incubating in 3% non-fat dry milk prepared in PBS at room temperature for 1 hour with constant slow agitation. The blot is incubated with 1-2 ug/mL of primary antibody (rabbit anti-phospho-Smad 1) prepared in PBS-milk, overnight with agitation at 4 degree C., washed twice with PBS, and incubated with secondary antibody (anti rabbit HRP conjugated IgG, 1:3000 dilution) at room temperature for 2 hours with agitation. After washing in PBS-0.05% Tween 20 for 5 minutes and rinsing, Smad phosphorylation is detected via an HRP reaction according to manufacturer's instructions (FIGS. 3, 27).
BMP signaling molecules co-administered with TDFRP compounds show synergistic or enhanced downstream signaling as detected by Smad phosphorylation. Smad phosphorylation was assessed by Western analysis in LNCaP (prostate cancer cells) or EC (vascular endothelial cells) cells in culture medium exposed to varying concentrations of TDFRP or control compounds. BMP-7 served as a positive control. Cells are lysed in RIPA lysis buffer (50 mM Tris-HCl at pH 8.0, 150 mM NaCl, 1% NP-40, 0.5% sodium deoxycholate, 0.1% SDS) containing 1 mM PMSF, 1 mM sodium orthovanadate, and 10 ug/mL proteinase inhibitor cocktail. Lysates are incubated on ice for 15 minutes, centrifuged, and transferred supernatant to a clean tube. 50 to 100 ug is used for analysis by SDS-PAGE. Resolved proteins are electro transferred onto PVDF membrane. […]

The test system of experiment [2] is LNCaP. As to the kind of experiment: Cancer cell proliferation, tritiated thymidine incorporation. In kind it is cell-based, human. As to conditions: LNCaP cultured in vitro.
Excerpt: (§1) TDFRP Compound Inhibition of LNCaP Cancer Cell Proliferation. BMP-6 and a TDFRP compound (SEQ ID NO:45) inhibited the proliferation of prostate cancer cells (LNCaP and PC-3) cultured in vitro as detected by the incorporation of tritiated thymidine (a measure of cell proliferation.
(§2) Prostate cancer is one of the most common cancers in men. […] Moreover, it has been shown that BMP signals inhibit the growth and the proliferation of human prostate tumor cells by upregulating the cyclin-dependent kinase inhibitor (CDKI) p21 (CIP1/WAF1) and decreasing the activity of Cdk2, leading to hypophosphorylation of Rb proteins. TDFRP compounds have been screened in in vitro prostate and bladder cancer bioassays to assess growth inhibitory activity of the compounds (FIG. 3). ^3H-thymidine incorporation is used as a marker for cell proliferation activity in human prostate and bladder cancer cell lines. Cisplatin inhibits ^3H-thymidine incorporation, indicating a tumor-growth suppressive activity of cisplatin in both human prostate and bladder cancer cells. TDFRP compounds are assayed in these cancer cells for the ability to induce receptor-regulated Smad 1/5 phosphorylation in a dose-dependent manner (FIG.).
as §2, with “(FIGS. 3, 28).” for “(FIG. 3).”, “(FIGS. 3, 28).” for “(FIG.).”
For orientation: Incorporation of labelled thymidine or its analogues reports DNA synthesis.

In experiment [3] the test system is PC-3. The experiment is described as above. As to conditions: PC-3 cultured in vitro. In kind it is cell-based, human.
Excerpt: as §1, §2
as §2, with “(FIGS. 3, 28).” for “(FIG. 3).”, “(FIGS. 3, 28).” for “(FIG.).”

“Also recorded” adds a separate entry of the source.

B1: BMP-6: bone morphogenetic protein BMP-6 (Vgr-1) (protein, UniProt P22004 375-513, looked up)
Bone morphogenetic protein 6: SASSRRRQQSRNRSTQSQDVARVSSASDYNSSELKTACRKHELYVSFQDLGWQDWIIAPKGYAANYCDGECSFPLNAHMNATNHAIVQTLVHLMNPEYVPKPCCAPTKLNAISVLYFDDNSNVILKKYRNMVVRACGCH
As for B1, the “Smad phosphorylation and activation” value in experiment [1] is “induced; also recorded: Smad 1, 5, 8 phosphorylation and activation”. Also, the “proliferation (incorporation of tritiated thymidine)” value in experiment [2] and in experiment [3] was “inhibited” in each case.

(Values after patent US8911953B2, “TDF-related compounds and analogs thereof, analogs and bioactive fragments” (Thrasos Innovation, Inc., priority 2005, dated 2014).)
